From US20100015637A1 (AbbVie / Abbott, published 2010)
One block for each molecule: values may come before it.

How the values were obtained:
[1] = target: CHO human PlGF-1 comprising amino acids 1-137 (human PlGF-1-His (1-131), CHO 6305) (human) (UniProt P49763); test: … sandwich, capture MAb264, detection pAb264; antigen 15 pg/mL
[2] = target: CHO human PlGF-1 fragment (comprising amino acids 17-131; ATCC PTA-8540) (human) (UniProt P49763); test: as above
[3] = target: human PlGF-1 comprising amino acids 1-137 produced in human embryonic kidney cells (human) (UniProt P49763); test: as above
[4] = target: human PlGF-1 fragment (comprising amino acids 17-131) produced in human embryonic kidney cells (human) (UniProt P49763); test: as above
[5] = target: recombinant human PlGF-1 (comprising amino acids 1-131) expressed in E. coli (R&D Systems) (human) (UniProt P49763); test: as above
[6] = target: CHO human PlGF-1 comprising amino acids 1-137 (human PlGF-1-His (1-131), CHO 6305) (human) (UniProt P49763); test: … sandwich, capture MAb264, detection pAb264; antigen 60 pg/mL
[7] = target: CHO human PlGF-1 fragment (comprising amino acids 17-131; ATCC PTA-8540) (human) (UniProt P49763); test: as above
[8] = target: human PlGF-1 comprising amino acids 1-137 produced in human embryonic kidney cells (human) (UniProt P49763); test: as above
[9] = target: human PlGF-1 fragment (comprising amino acids 17-131) produced in human embryonic kidney cells (human) (UniProt P49763); test: as above
[10] = target: recombinant human PlGF-1 (comprising amino acids 1-131) expressed in E. coli (R&D Systems) (human) (UniProt P49763); test: as above
[11] = target: CHO human PlGF-1 comprising amino acids 1-137 (human PlGF-1-His (1-131), CHO 6305) (human) (UniProt P49763); test: … sandwich, capture MAb264, detection pAb264; antigen 250 pg/mL
[12] = target: CHO human PlGF-1 fragment (comprising amino acids 17-131; ATCC PTA-8540) (human) (UniProt P49763); test: as above
[13] = target: human PlGF-1 comprising amino acids 1-137 produced in human embryonic kidney cells (human) (UniProt P49763); test: as above
[14] = target: human PlGF-1 fragment (comprising amino acids 17-131) produced in human embryonic kidney cells (human) (UniProt P49763); test: as above
[15] = target: recombinant human PlGF-1 (comprising amino acids 1-131) expressed in E. coli (R&D Systems) (human) (UniProt P49763); test: as above
[16] = target: CHO human PlGF-1 comprising amino acids 1-137 (human PlGF-1-His (1-131), CHO 6305) (human) (UniProt P49763); test: … sandwich, capture MAb264, detection pAb264; antigen 750 pg/mL
[17] = target: CHO human PlGF-1 fragment (comprising amino acids 17-131; ATCC PTA-8540) (human) (UniProt P49763); test: as above
[18] = target: human PlGF-1 comprising amino acids 1-137 produced in human embryonic kidney cells (human) (UniProt P49763); test: as above
[19] = target: human PlGF-1 fragment (comprising amino acids 17-131) produced in human embryonic kidney cells (human) (UniProt P49763); test: as above
[20] = target: recombinant human PlGF-1 (comprising amino acids 1-131) expressed in E. coli (R&D Systems) (human) (UniProt P49763); test: as above
[21] = target: CHO human PlGF-1 comprising amino acids 1-137 (human PlGF-1-His (1-131), CHO 6305) (human) (UniProt P49763); test: … sandwich, capture MAb264, detection pAb264; antigen 1500 pg/mL
[22] = target: CHO human PlGF-1 fragment (comprising amino acids 17-131; ATCC PTA-8540) (human) (UniProt P49763); test: as above
[23] = target: human PlGF-1 comprising amino acids 1-137 produced in human embryonic kidney cells (human) (UniProt P49763); test: as above
[24] = target: human PlGF-1 fragment (comprising amino acids 17-131) produced in human embryonic kidney cells (human) (UniProt P49763); test: as above
[25] = target: recombinant human PlGF-1 (comprising amino acids 1-131) expressed in E. coli (R&D Systems) (human) (UniProt P49763); test: as above
[26] = target: CHO human PlGF-1 comprising amino acids 1-137 (human PlGF-1-His (1-131), CHO 6305) (human) (UniProt P49763); test: … sandwich, capture MAb264, detection pAb264; antigen 0 pg/mL (blank)
[27] = target: CHO human PlGF-1 fragment (comprising amino acids 17-131; ATCC PTA-8540) (human) (UniProt P49763); test: as above
[28] = target: human PlGF-1 comprising amino acids 1-137 produced in human embryonic kidney cells (human) (UniProt P49763); test: as above
[29] = target: human PlGF-1 fragment (comprising amino acids 17-131) produced in human embryonic kidney cells (human) (UniProt P49763); test: as above
[30] = target: recombinant human PlGF-1 (comprising amino acids 1-131) expressed in E. coli (R&D Systems) (human) (UniProt P49763); test: as above
[31] = target: T1, CHO human PlGF-1 comprising amino acids 1-137 (human PlGF-1-His (1-131), CHO 6305) (human, UniProt P49763 19-221, N-glycans at N21 (completely glycosylated) and N89 (partially glycosylated)); test: sandwich chemiluminescent EIA, 1-255-713 coated, acridinium 2-826-335 Fab'2 detection
T1 construct: Mature human PlGF-1 with 6xHis tag (137 amino acids); also called CHO (1-137)
T1 sequence: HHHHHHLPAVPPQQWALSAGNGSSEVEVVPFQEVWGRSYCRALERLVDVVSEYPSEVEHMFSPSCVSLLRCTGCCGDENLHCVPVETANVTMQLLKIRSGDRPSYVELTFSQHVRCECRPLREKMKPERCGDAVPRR
Description: After the capture reagent had been coated on the solid phase, it was removed and any unoccupied binding sites remaining on the plates were blocked using a 2% Fish Gel solution in PBS. The plates were washed and log 2 serial dilutions of recombinant antigen (rAg) lots, starting at 10,000 pg/mL in research phase […]® Human PlGF-1 calibrator diluent (which comprises a buffer containing MES, other salt, a protein blocker and an antimicrobial; Abbott Laboratories, Abbott Park, Ill.), were added to the plate for a one-hour incubation. Purified human PlGF-1 rAg (R&D Systems Minneapolis, Minn.) that was produced in E. coli was used as a positive control and purified NGAL) rAg was used as a negative control in this assay. […] Luminescence counts per second (LCPS) were measured on a Microbeta Jet instrument (Perkin Elmer, Waltham Mass.). The plate was loaded in the instrument where 100 μl of Architect Pre-trigger Solution (Abbott Laboratories, Abbott Park, Ill.) is added to each well, followed by 100 ul of Architect Trigger Solution is added before flash chemiluminescence is read and recorded. A calibration curve was generated with each rAg and recorded in the following graph.

- RLU [1]: 6370 RLU
- RLU [2]: 6870 RLU
- RLU [3]: 10400 RLU
- RLU [4]: 8590 RLU
- RLU [5]: 15600 RLU
- RLU [6]: 13800 RLU
- RLU [7]: 14800 RLU
- RLU [8]: 31300 RLU
- RLU [9]: 23500 RLU
- RLU [10]: 55000 RLU
- RLU [11]: 38900 RLU
- RLU [12]: 46000 RLU
- RLU [13]: 109000 RLU
- RLU [14]: 77900 RLU
- RLU [15]: 196000 RLU
- RLU [16]: 106000 RLU
- RLU [17]: 120000 RLU
- RLU [18]: 277000 RLU
- RLU [19]: 206000 RLU
- RLU [20]: 352000 RLU
- RLU [21]: 201000 RLU
- RLU [22]: 223000 RLU
- RLU [23]: 507000 RLU
- RLU [24]: 403000 RLU
- RLU [25]: 937000 RLU
- RLU [26]: 4650 RLU
- RLU [27]: 4680 RLU
- RLU [28]: 4750 RLU
- RLU [29]: 4880 RLU
- RLU [30]: 5110 RLU
Molecule: monoclonal antibody 264 (mouse anti-human PlGF-1, Clone 37203, R&D Systems Catalog Number MAB264)

- binding result [31]: binds
B1: acridinium labeled Fab'2 fragment of human PlGF-1 antibody 2-826-335 (other)
VH: QVQLKQSGPGLVQPSQSLSITCTVSGFSLTTYGIHWVRQSPGKGLEWLGVMWSGGDTDYDAAFISRLSISKDNSKSQVFFKMNSLQANDTGIYYCARYRFYGMDYWGQGTSVTVSS
VL: AIQMTQSSSSFSVSLGDRVTITCKASEDIYNRFAWYQQKPGNAPRLLISGAASLEAGVPSRFSGSGSGQDYTLSITSLQTEDVATYYCQQYWSTPWTFGGGTKLEIKR
modifications: acridinium labeled
